Target: PA63 heptamer (63 kD form of anthrax toxin protective antigen) (Bacillus anthracis, UniProt P13423)
Assay: NMR titration
Details: both partners purified

Sequence of PA63 heptamer (63 kD form of anthrax toxin protective antigen) (P13423 197-764): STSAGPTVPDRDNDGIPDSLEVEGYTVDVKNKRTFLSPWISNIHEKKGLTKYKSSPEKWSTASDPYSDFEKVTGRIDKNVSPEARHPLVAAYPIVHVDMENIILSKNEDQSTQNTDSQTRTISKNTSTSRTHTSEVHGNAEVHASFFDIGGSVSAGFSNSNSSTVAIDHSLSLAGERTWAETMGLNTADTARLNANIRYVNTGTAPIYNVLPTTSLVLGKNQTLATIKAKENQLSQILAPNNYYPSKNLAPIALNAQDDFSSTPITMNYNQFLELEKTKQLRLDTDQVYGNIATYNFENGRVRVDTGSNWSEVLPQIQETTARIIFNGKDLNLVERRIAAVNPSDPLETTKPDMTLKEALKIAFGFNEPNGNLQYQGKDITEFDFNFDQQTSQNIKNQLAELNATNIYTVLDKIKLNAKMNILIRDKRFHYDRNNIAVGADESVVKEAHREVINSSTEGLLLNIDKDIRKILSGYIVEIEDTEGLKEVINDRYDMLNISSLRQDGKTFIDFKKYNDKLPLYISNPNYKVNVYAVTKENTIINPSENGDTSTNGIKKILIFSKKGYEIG

B1: ANTXR2 VWA-domain (anthrax toxin receptor type 2, extracellular von Willebrand factor type A domain) (domain or fragment)
chain: SCRRAFDLYFVLDKSGSVANNWIEIYNFVQQLAERFVSPEMRLSFIVFSSQATIILPLTGDRGKISKGLEDLKRVSPVGETYIHEGLKLANEQIQKAGGLKTSSIIIALTDGKLDGLVPSYAEKEAKISRSLGASVYCVGVLDFEQAQLERIADSKEQVFPVKGGFQALKGIINSILAQSC
notes: also called capillary morphogenesis protein 2; CMG2
binding result: binds
